In PMC6568178 (Theranostics, 2019):

Assays:
FOXM1 (endogenous) = target: T1, FOXM1 (endogenous) (human (endogenous in MDA-MB-231 and …, UniProt Q08050 1-763)); experiment: cell-based or functional assay
T1 sequence: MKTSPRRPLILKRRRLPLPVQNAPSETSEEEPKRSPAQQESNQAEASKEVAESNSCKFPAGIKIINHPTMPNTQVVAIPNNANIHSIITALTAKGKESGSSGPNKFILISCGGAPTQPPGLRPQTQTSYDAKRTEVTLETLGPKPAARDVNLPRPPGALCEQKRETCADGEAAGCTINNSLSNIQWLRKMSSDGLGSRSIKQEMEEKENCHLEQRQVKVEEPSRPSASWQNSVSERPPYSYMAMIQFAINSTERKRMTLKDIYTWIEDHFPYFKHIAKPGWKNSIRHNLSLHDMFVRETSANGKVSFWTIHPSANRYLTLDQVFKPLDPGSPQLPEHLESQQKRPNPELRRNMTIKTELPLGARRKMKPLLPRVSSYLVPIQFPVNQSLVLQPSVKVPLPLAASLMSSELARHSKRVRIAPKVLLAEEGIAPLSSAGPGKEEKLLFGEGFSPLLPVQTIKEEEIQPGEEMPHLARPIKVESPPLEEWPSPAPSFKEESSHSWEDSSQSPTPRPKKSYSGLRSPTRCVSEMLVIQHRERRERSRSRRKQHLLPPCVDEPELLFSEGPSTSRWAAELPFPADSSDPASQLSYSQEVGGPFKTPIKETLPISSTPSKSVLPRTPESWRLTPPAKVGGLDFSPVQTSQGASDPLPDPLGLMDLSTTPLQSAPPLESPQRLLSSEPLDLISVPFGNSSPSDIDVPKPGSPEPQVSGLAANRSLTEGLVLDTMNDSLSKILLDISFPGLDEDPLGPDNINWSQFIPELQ

[1] = target: T2, FOXM1 full-length;M1-138 (6xHis-FOXM1(1-138)-R9) (human?;human?, UniProt Q08050-2;Q08050-2 1-748;1-138, |); experiment: EMSA
T2 sequence 1: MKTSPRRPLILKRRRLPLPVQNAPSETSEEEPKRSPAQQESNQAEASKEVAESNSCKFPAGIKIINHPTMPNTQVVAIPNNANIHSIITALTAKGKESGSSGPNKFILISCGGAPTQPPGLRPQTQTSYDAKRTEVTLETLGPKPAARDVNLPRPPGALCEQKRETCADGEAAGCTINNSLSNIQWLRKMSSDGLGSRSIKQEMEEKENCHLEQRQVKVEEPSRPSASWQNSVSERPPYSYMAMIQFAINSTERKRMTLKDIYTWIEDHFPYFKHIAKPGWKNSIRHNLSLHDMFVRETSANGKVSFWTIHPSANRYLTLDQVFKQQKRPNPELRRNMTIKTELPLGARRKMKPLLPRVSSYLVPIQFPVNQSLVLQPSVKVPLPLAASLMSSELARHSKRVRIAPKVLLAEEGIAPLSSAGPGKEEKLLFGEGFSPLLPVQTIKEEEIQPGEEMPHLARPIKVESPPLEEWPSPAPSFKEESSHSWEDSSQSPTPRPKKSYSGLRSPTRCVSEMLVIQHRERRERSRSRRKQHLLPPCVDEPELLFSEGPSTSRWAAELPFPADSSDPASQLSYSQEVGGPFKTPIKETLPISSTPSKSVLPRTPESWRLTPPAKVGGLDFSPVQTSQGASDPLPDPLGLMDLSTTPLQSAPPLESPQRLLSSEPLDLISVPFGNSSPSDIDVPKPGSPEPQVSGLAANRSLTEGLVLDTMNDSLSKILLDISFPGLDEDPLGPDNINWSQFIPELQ
T2 sequence 2: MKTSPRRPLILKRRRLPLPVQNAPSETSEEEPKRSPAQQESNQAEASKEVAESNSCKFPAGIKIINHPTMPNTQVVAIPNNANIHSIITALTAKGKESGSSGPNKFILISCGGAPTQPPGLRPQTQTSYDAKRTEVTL

FOXM1 full-length = target: T3, FOXM1 full-length (UniProt Q08050-2 1-748); experiment: EMSA
T3 sequence: T2 sequence 1

B1: M1-138 (recombinant FOXM1 N-terminal domain (1-138aa) fused with a nine arginine cell-penetrating peptide) (domain or fragment)
chain: MKTSPRRPLILKRRRLPLPVQNAPSETSEEEPKRSPAQQESNQAEASKEVAESNSCKFPAGIKIINHPTMPNTQVVAIPNNANIHSIITALTAKGKESGSSGPNKFILISCGGAPTQPPGLRPQTQTSYDAKRTEVTLRRRRRRRRR
- IC50 of cell viability (CCK-8), A549 cells, 12 h treatment (FOXM1 (endogenous)): 5.3 µM
- IC50 of cell viability (CCK-8), Hela cells, 12 h treatment (FOXM1 (endogenous)): 8.9 µM
- IC50 of cell viability (CCK-8), HepG2 cells, 12 h treatment (FOXM1 (endogenous)): 13.8 µM
- IC50 of cell viability (CCK-8), MCF-7 cells, 12 h treatment (FOXM1 (endogenous)): 17.9 µM
- IC50 of cell viability (CCK-8), MDA-MB-231 cells, 12 h treatment (FOXM1 (endogenous)): 7.8 µM

B2: FAM-labeled FOXM1 dsDNA probe (Hot) (dsDNA)
DNA 1: TTTGTTTATTTGTTTGTTTATTTG
DNA 2: CAAATAAACAAACAAATAAACAAA
- binding result [1]: binds
- binding result (FOXM1 full-length): binds
